The nanobody polyreactivity screen of Harvey et al. (2022)

Test: yeast display, Sf9 membrane polyspecificity reagent, FACS + sequencing; frameworks hold sequencing errors
Outline: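 Nanobodies came from a synthetic yeast display library in Saccharomyces cerevisiae BJ5465, induced with galactose for 36–48 hours and stained for 1 hour at 4 °C with 10% biotinylated, detergent-solubilized Sf9 membrane reagent. Cells were enriched on streptavidin microbeads and then FACS-sorted, with low and high (top ~1%) gates set on anti-HA fluorescence for expression and streptavidin fluorescence for reagent binding. Each polyreactivity label reflects the gate a clone came from. Genes were amplified by colony PCR, sequenced by MiSeq 2 × 250 and filtered by CDR length.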

Sequence	polyreactivity (PSR sort gate)
QVQLVESGGGLVQAGGSLRLSCAASGRTFGHNAMGWYRQAPGKEREFVAAITYSGVRTFYADSVKGRFTISRDNAKNTVYLQMNSLKPEDTSVYYCATDWRRDYDYWGQGTQVTVSS	low polyreactivity
QVQLQESGGDLEQAGGSLLLSCTASGTISEVRVMGWYRQAPGKERELVATISYVTITYYADSVKGRFTISRDSEKHRVSADDEPQTGRYRGVLLSYYWGLGTQVTVSS	low polyreactivity
QVQLVESGGGLVQAGGSLRLSCADSGFIFYFYTKGCYIQSPGKDRELVSGITWLDGSTYYADSVKGRFTISRDNAKNTVYLQMNSLKPEDTAVYYCNRDQWPWESGYAYNYWGQGTQVTVSS	low polyreactivity
QVQLVESGGGLVQAGGSLRISCDASGYIFGWNSMGWYRQAPGKERELVAAISSSGGNTYYADSVKGRFTISRDNAKNTVYLQMNSLKPEDTAVYYCARSYPYRYDYWGQGTQVTVSS	low polyreactivity
QVQLVESGGGLVQAGGSLRLSCAASGSTFDGYTMGWYRQAPGKERELVAAISWRGTSTYYADSVKGRFTISRYIAKNTVYLQMNSLKPEDTAVYYCAADAYSGYDYWGQGTQVTVSS	low polyreactivity
QVQLVESGGGLVQAGRSLRLTCAASGRIFTPYAMGWYRQAPGTERELVATITLSGGSTYYADSVKGRFTISRDYAKNTVYLQMNSLKPEDTAVYYCNKDTHLHVVDYRTGYDCWGQGTQVTVSS	low polyreactivity
QVHLVVSGGGLVQEGGSLSLRWAASGSTFEYYGMGWYTQAPGKERELVAAITVSGGSTYYADSVKGRFTISRDNEKNTVYLQIHSLKPEDSAVCYCAARPILYWYFRFDYWGQGTQVTVSS	low polyreactivity
QVQLVESGGGLVQAGGSLRLSCAASGSTFGTNDMGWYRQAPGKEREFVASIDWSGDSTNYADSVKGRFTISRDNAKNTVYLQMNSLKPEDTAVYYCAARVFPPSRHDYWGQGTQVTVSS	high polyreactivity
QVQLVESGGGLVQAGGSLRLSCAASGLTFYCYAMGWYRQAPGKERELVAAITSGDSTYYADSVKGRFTISRDNAKNTVYLQMNSLKPEDTAVYYCAAVGGYPRYGYWGQGTQVTVSS	high polyreactivity
QVHLVESGGGLVQAGGCLRLSCAASGSIFSVHAMGWYRQAPVKERELVAAISGDGDSTYYADSVKGRFTISRDNAKNTVYLQMNSLKPEDTAVYYCAVEPNVYFSVFVLFPSDYWGQGSQVTVSS	low polyreactivity
QVQLVESGGGLVQAGGSLRLSCAASGFTFYKYTMGWYRQAPGKERELVAAISARGGSTYYADSVKGRFTISRDNAKNTVYLQMNSLKPEDTAVYYCAADYWRTYGLGYDYWGQGTQVTVSS	high polyreactivity
QVQLVESGGGLVQAGGSLRFSCAAPGTIFPRYAMGWYRQAPGKERELVAAISRSGGSTYYADSVKGRFTISRDNAKNTVYLQMNSLKPEDTAVYYCATDKVSHRRYDYWGQGTQVTVSS	high polyreactivity
QVQLVESGGGLVQAGGSLRLSCAASGSISNVYDMGWYRQAPGKERELVATISRTGDSTYYADSVKGRFTISRDNAKNTVYLQMNSLKPEDTAVYYCAARFYWWGLGDDYWGQGTQVTVSS	high polyreactivity
QVQLVESGGGLVQAGGSLRLSCAASGLTFGYYVMGWYRQAPGKERELVAAISFRGVSTYYADSVKGRFTISRDNAKKTVDLQMNSLKPEDTAVNYCARRYTSKGGYDYWGQGTQVTVSS	high polyreactivity
QVQLVESVGGLVQAGGSLRLSCAASGSTFEIYAMGWYRQAPGKERELVAVISGGDGSTYYADSVKGRFTISRDNAKNTVYLQMNSLKPEDTAVYYCAADYISPGYWDGEYDCWGQGTQVTVSS	low polyreactivity
QVQLVESGGGLVQAGGSLSLSCAASGSIFWSYAMGWYRQAPGKERELVAAITTDGGTNYADSVKGRFTISRDNAKNTVYLQMNSLKPVDTAVYYCAADTDPKPRIDYTLRMDYWGHGTQVTVSS	low polyreactivity
QVQLVESGGGLVQAGGSLRLSCAASGSTFGVNDMGWYRQAPGKERELVAAISRGAITNYADSVKGRFTISRDNAKNTVYLQMNSLKPEDTAVYYCAAGFVTYYVPQYKEYGYDYWGQGTQVTVSS	low polyreactivity
QVQLVDSGGGLVQEGGSLRLSCAASGRIFWYYDMGWYRQAPGKERELVAAISQRGGSTYYADSVKGRFTISRDNAKNTVYLQMNSLKPEDTAVYYCAKRNPYWATREYWGQGTQVTVSS	high polyreactivity
QVQLVESGGVLVQAGGSLRLSCAASGRIFPGYVMGWYRQAHGKERELVAAITRGGSTYYADSVKGRFTISRDNAKNTVYLQMNSLKPEDTAVYYCAAKHSHIHYNYWGQGTQVTVSS	low polyreactivity
QVQLQESGGGLVQAGGSLRLSCAASGYISHADEMGWYRQAPGKEHELVASISNGGSTNYADSVKGRFTISRDNAKNTVYLQMNSLKSEDTAVYYCAAWTGQVDIHYYWGQGTQETVSS	low polyreactivity
QVQLVESRGGLVQAGGSLRLSFAASGIIFADYAMGWYRQAPGKERELVAAISSGDSTYYADSVKGRFTISRDNAKNTVYLQMNSLKPEDTAVYYCAARLYRNKYRIAKMNYWGQGTQVTVSS	high polyreactivity
QVQLVESGGGLVQAGGSLRLSCAASGLIFDGYAMGWYRQAPGKERELVAAISRSGSRTYYADSVKGRFTISRDNAKNTVYLQMNSLKPEDTAVYYCAADAYNYPELDYWGQGTQVTVSS	high polyreactivity

Sequence	polyreactivity (PSR sort gate)
QVKLVESGGGLVQAGGSLRLSCAASGRTFYRNTMGWYRQAPGKERELVAAITRSGGSTYYADSVKGRFTISRDNAKNTVYLQMNRLKPEDTAVYYCARPKIHGETRSYGYGYWGQGTQVTVSS	high polyreactivity
QVQLVESAGGLVQAGGSLRLICAASGGTFSTYAIGWYRQAPGKEREFVAAITRSGTSTYYADSVKGRFTISRDNAKNTVYLQMNGLNPEDTAVYYCAAGVYSFRYDYWGQGTQVTVSS	low polyreactivity
QVQIVESGGGLVQAGGSLRLSCAASGRIFGYNAMGWYRQAPGKERELVAAISNTGGSTYYADSVKGRFTISRDNAKNTVYLQMNSLKPEDTAVYYCNASGRRVQIWEGDYWGHGTQVTVSS	high polyreactivity
QVQLVESGGGLVQAGGSLRLSCAASGSIFAVYAMGWYRQAPGKERELVAVITRSGGSTYYADSVKGRFTISRDNAKNTVYLQMNSLKPEDTAVYYCAARTGYGYTRYEYWGQGTQVTVSS	high polyreactivity
QVQLVESGGGLVQAGGSLRLSCAASGFTFGSNDMGWYRQAPVKERELVAAIDGSGDTYYADSVKGRFTISRDNAKNTVYLQMNSLKPEDTAVYYCAAGYTYYSLYGYWGQGTQVTVSS	low polyreactivity
QVHLVESGGGLVQAGGSLRLSFAAYGSIFIQYVMGWYRQAPGKERELVAAISRRGGSTYYADSVKGRFTISRDNAKNTVYLHMNSLKPEDTAVYYCAAGSAYSIGYYWGQGTQVTVSS	high polyreactivity
QVQLVESGGALVQAGGSLRLTCAASGRTFYYYAKGWYRPAPGTERELVAAISCSGGRTYYADSVKGRFTISRDNANDTVYVPMNSLKPEDTAVFYCYAEPPSGYTVSSGGEMDYWGQGTQVTVSS	low polyreactivity
QVQLVESGGGLVQAGGSLRLTCAASGFTFYWYTMGWYRQAPGKERELVATISGSGGRTYYADSVKGRFTISRDNAKNTVYLQMNSLKPEDTAVYYCNAGRPYKYGYWGQGTQVTVSS	high polyreactivity
QVQLVESGGGLVQAGGSLRLSCAASGSTFSWYAMGWYRQAPGKERELVATITGSGGSTYYADSVKGRFTISRDNAKNTVYLQMNSLKPEDTAVYYCALDRGYTRWIASHSYQYDYWGQGTQETVSS	low polyreactivity
QVQLVESGGGLVQAGGSLRLSCAASGSIFFYYAMGWYRQAPGKDRELVAAITSSGDSTYYADSVKGRFTISRDNAKNTVYLQMNSLKPEDTAVYYCAALYIGYTGYYYWGQGTQVTVSS	low polyreactivity
QVQLVESGGGLVQAGGSLRLSCAASGSIYYNAMGWYRQAPGKERELVAAISTSGGTTYYADSVKGRFTISRDNAKNTVYLQMISQKPEDTAVYYCNARPSRRGAFDYWGQGTQVTVSS	high polyreactivity
QVQLVESGGGLVQAGGSLRLSCAASGSTFSTYAMGWYRQAPGKERELVAAITSSGGSTYYADSVKGRFTISRDNAKNTVYLQMNSLKPEDTAVYYCAAGRGYWWWYGYDYWGQGTQVTVSS	low polyreactivity
QVQHVESGGGLVQAGGSLRLSCAASGRTFPAYAMGWYRQAPGKERELVAAITYDGGTTYYADSVKGRFTISRYNAKNTVYLQMNSLKPEDTAVYYCADVYDEDQYDYWGQGTQVTVSS	low polyreactivity
QVQLVESGGGLVQAGGSLRLSCAASGRIFEDNGMGWYRQAPGKEREFVATISWDGDRTYYADSVKGRFTISRDNAKNTVYLQMNSLKPEDTAVYYCNADLPLWPVRGYEYWGQGTQVTVSS	low polyreactivity
QGQLVESGGGLVQAGGSLRLSCAASGSIFSHYAMGWYRQAPGKEMELVAAISRSGGSTYYADSVKGRFTISRDNAKNTVYLQMNCLKPEDTAVYYCAKEGDSGYWFDYWGQGTQVTVSS	low polyreactivity
QVQLVESGGGLFQAGGSLRLSCAASGFIFRPYGMGWYRQAPGKERELVAAISWSGDRTYYADSVKGRFTISRDNAKNTVYLQMNSLKPEDTAVYYCAADGVTRDYDYWGQGNQVTVSS	low polyreactivity
QVQLVESGGGLVQAGGSLRLSCAASGSIFYWYAMGWYRQAPGKERELVASIRWSGGTYYADSVKGRFTISRDNAKNTVYLQMNSLKPEDTAVYYCNKGGGRGHFEYWGQGTQVTVSS	low polyreactivity
QVQLVESGGGLVQAGGSLRLSCAASGRTFPFNVMGWYRQAPGKERELVAAISSGGSTNYADSVKGRFTISRDNAKNTVYLQMNSLKPEDTAVYYCAAYSVYGRYGRTFYYWGQGTQVTVSS	high polyreactivity
QVQLVESGGGLVQAGGSLRLSCAASGSTFTYYAMGWYRQAPGKERELVAAITSNGGSTFYADSVKGRFTISRDNAKNTVYLQMNSLKPEDTAVYYCAAYRTHGPPRAIRFDYWGQGTQVTVSS	high polyreactivity
QVQLVESGGGLVQAGGSLRLSCADSGSIFDFNTMGWYRQAPGKERELVAAISQRTGRTYYADSVKGRFTISRDNANNTVYLQMNSLKPEDTADYYCAVVWYDKGRQTRYNSWGQGTQVTVSS	high polyreactivity
QVQLVESGGGLVQAGGSLRLSCAASGRIFSNYAMGWYRQAPGKERELVAAISSSGGRTYYADSVKGRFTISRDNAKNTVYLQMNSLKPEDTAVYYCARRHTGTKFAFYYWGQGTQVTVSS	high polyreactivity
